The pKd is the negative decadic logarithm of the Kd, by convention in mol/L. A higher pKd goes with a small Kd.

The target of assay [1] is HLA-B*15:42. The experiment in a line: IEDB peptide-MHC binding, purified MHC/competitive/fluorescence; filed as Kd, often an IC50 or EC50 that approximates it; ≥ and ≤ were set here for values at or beyond the usual limits of such assays. The note with it: source organism: Kurkino virus.
For assay [2], the target named is HLA-A*32:07. The assay is described as above. The note with it: source organism: Kurkino virus.
Assay [3] deals with HLA-B*40:13. The description is as above. The note with it: source organism: Kurkino virus.
The target of assay [4] is HLA-B*27:20. Described as above. The note with it: source organism: Kurkino virus.
Assay [5] deals with HLA-B*45:06. The assay is described as above. The note with it: source organism: Kurkino virus.
Assay [6] deals with HLA-A*03:19. The description is as above. The note with it: source organism: Kurkino virus.
Assay [7] addresses HLA-A*32:15. The description is as above. The note with it: source organism: Kurkino virus.
Assay [8] deals with HLA-B*83:01. Described as above. The note with it: source organism: Kurkino virus.
The target of assay [9] is HLA-A*02:01. The experiment in a line: IEDB peptide-MHC binding, purified MHC/direct/fluorescence; filed as Kd, often an IC50 or EC50 that approximates it; ≥ and ≤ were set here for values at or beyond the usual limits of such assays. The note with it: source organism: Orthohantavirus dobravaense.
The target of assay [10] is HLA-A*02:12. Described as above. The note with it: source organism: Kurkino virus.
Assay [11] has as its target HLA-A*02:11. The assay is described as above. The note with it: source organism: Kurkino virus.
Assay [12] deals with HLA-A*02:19. Described as above. The note with it: source organism: Kurkino virus.
In assay [13] the target is HLA-A*69:01. The assay is described as above. The note with it: source organism: Orthohantavirus dobravaense.

pKd: −log10 of the molar value. Where only a bound is given, the exact number is not on record here.

As for SLYSGFPSL, the pKd is no more than 5.30 in assay [1]; 8.60 in assay [2]; 6.80 in [3]; 7.58 in assay [4]; no more than 5.30 in assay [5]; 7.58 in assay [6]. In addition, the pKd was 7.52 in assay [7]; no more than 5.30 in assay [8]; no less than 9.00 in [9]; no less than 9.00 in [10]; no less than 9.00 in assay [11]; 7.38 in assay [12]. This sequence also showed a pKd in [13] of no less than 9.00.

Source of the values: the Immune Epitope Database (IEDB).
